Results reported in PMC10456876 (2023).

Target: human telomeric nucleosome core particle (teloNCP) (human, UniProt P68431 1-136; P62805 1-103; P04908 1-130; P06899 1-124)
Assay: EMSA, concentration at 50% bound

B1: wild-type MBP-tagged TRF1core (TRF1-TIN2-TPP1) (complex)
chain 1: MAEDVSSAAPSPRGCADGRDADPTEEQMAETERNDEEQFECQELLECQVQVGAPEEEEEEEEDAGLVAEAEAVAAGWMLDFLCLSLCRAFRDGRSEDFRRTRNSAEAIIHGLSSLTACQLRTIYICQFLTRIAAGKTLDAQFENDERITPLESALMIWGSIEKEHDKLHEEIQNLIKIQAIAVCMENGNFKEAEEVFERIFGDPNSHMPFKSKLLMIISQKDTFHSFFQHFSYNHMMEKIKSYVNYVLSEKSSTFLMKAAAKVVESKRTRTITSQDKPSGNDVEMETEANLDTRKSVSDKQSAVTESSEGTVSLLRSHKNLFLSKLQHGTQQQDLNKKERRVGTPQSTKKKKESRRATESRIPVSKSQPVTPEKHRARKRQAWLWEEDKNLRSGVRKYGEGNWSKILLHYKFNNRTSVMLKDRWRTMKKLKLISSDSED
chain 2: MATPLVAGPAALRFAAAASWQVVRGRCVEHFPRVLEFLRSLRAVAPGLVRYRHHERLCMGLKAKVVVELILQGRPWAQVLKALNHHFPESGPIVRDPKATKQDLRKILEAQETFYQQVKQLSEAPVDLASKLQELEQEYGEPFLAAMEKLLFEYLCQLEKALPTPQAQQLQDVLSWMQPGVSITSSLAWRQYGVDMGWLLPECSVTDSVNLAEPMEQNPPQQQRLALHNPLPKAKPGTHLPQGPSSRTHPEPLAGRHFNLAPLGRRRVQSQWASTRGGHKERPTVMLFPFRNLGSPTQVISKPESKEEHAIYTADLAMGTRAASTGKSKSPCQTLGGRALKENPVDLPATEQKENCLDCYMDPLRLSLLPPRARKPVCPPSLCSSVITIGDLVLDSDEEENGQGEGKESLENYQKTKFDTLIPTLCEYLPPSGHGAIPVSSCDCRDSSRPL
chain 3: MAGSGRLVLRPWIRELILGSETPSSPRAGQLLEVLQDAEAAVAGPSHAPDTSDVGATLLVSDGTHSVRCLVTREALDTSDWEEKEFGFRGTEGRLLLLQDCGVHVQVAEGGAPAEFYLQVDRFSLLPTEQPRLRVPGCNQDLDVQKKLYDCLEEHLSESTSSNAGLSLSQLLDEMREDQEHQGALVCLAESCLTLEGPCTAPPVTHWAASRCKATGEAVYTVPSSMLCISENDQLILSSLGPCQRTQGPELPPPDPALQDLSLTLIASPPSSPSSSGTPALPGHMSSEESGTSISLLPALSLAAPDPGQRSSSQPSPAICSAPATLTPRSPHASRTPSSPLQSCTPSLSPRSHVPSPHQALVTRPQKPSLEFKEFVGLPCKNRPPFPRTGATRGAQEPCSVWEPPKRHRDGSAFQYEYEPPCTSLCARVQAVRLPPQLMAWALHFLMDAQPGSEPTPM
modifications: phosphoserine at 434, 435 and 437 (reported for the purified TRF1core sample from Sf9)
  EC50: 37 nM
